From the supplement of paper PMC5998384 come the findings set out here.

Data set [1] deals with HeLa Kyoto. Kind of data set: solubility in G1/S (NP-40 vs SDS abundance) (log2 ratio); higher = more soluble. To be noted: cell cycle stage: G1/S.
The subject of data set [2] is HeLa Kyoto. Kind of data set: melting temperature (median over replicates), in situ; higher = more thermally stable.
Data set [3] deals with HeLa Kyoto. Nature of the data set: solubility change mitosis vs G1/S (difference of NP-40 vs SDS log2 ratios) (log2 ratio difference); higher = more soluble in mitosis.
For data set [4], the system named is HeLa Kyoto. Kind of data set: thermal stability score vs G1/S (z-score of summed log2 fold changes over temperatures); higher = more thermally stable than in G1/S.
Where [5] appears, read: cell cycle stage: early G1 (4.5 h after nocodazole release).
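Throughout, for melting temperature (median over replicates), in situ: HeLa Kyoto cells synchronized by double thymidine or nocodazole block, proteins quantified by TMT10plex mass spectrometry, three independent biological replicates.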
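Throughout, for solubility change mitosis vs G1/S (difference of NP-40 vs SDS log2 ratios): synchronized HeLa Kyoto cells (double thymidine block for G1/S, nocodazole release for mitosis), protein amounts in NP-40 versus SDS lysates quantified by mass spectrometry, three biological replicates.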
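Throughout, for solubility in G1/S (NP-40 vs SDS abundance): HeLa Kyoto cells arrested at G1/S by double thymidine block, proteins quantified by TMT10plex mass spectrometry in mild NP-40 versus SDS extracts, three biological replicates.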
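Throughout, for thermal stability score vs G1/S (z-score of summed log2 fold changes over temperatures): synchronized HeLa Kyoto cells, proteins quantified by TMT10plex mass spectrometry, three biological replicates, mitosis taken 0.5 h after nocodazole release, G1/S directly after double thymidine block.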

In the case of “MCDLRRPAAGGMMDLAYVCEWEKWSKSTHCPSVPLACAWSCRNLIAFTMDLRSDDQDLTRMIHILDTEHPWDLHSIPSEHHEAITCLEWDQSGSRLLSADADGQIKCWSMADHLANSWESSVGSLVEGDPIVALSWLHNGVKLALHVEKSGASSFGEKFSRVKFSPSLTLFGGKPMEGWIAVTVSGLVTVSLLKPSGQVLTSTESLCRLRGRVALADIAFTGGGNIVVATADGSSASPVQFYKVCVSVVSEKCRIDTEILPSLFMRCTTDLNRKDKFPAITHLKFLARDMSEQVLLCASSQTSSIVECWSLRKEGLPVNNIFQQISPVVGDKQPTILKWRILSATNDLDRVSAVALPKLPISLTNTDLKVASDTQFYPGLGLALAFHDGSVHIVHRLSLQTMAVFYSSAAPRPVDEPAMKRPRTAGPAVHLKAMQLSWTSLALVGIDSHGKLSVLRLSPSMGHPLEVGLALRHLLFLLEYCMVTGYDWWDILLHVQPSMVQSLVEKLHEEYTRQTAALQQVLSTRILAMKASLCKLSPCTVTRVCDYHTKLFLIAISSTLKSLLRPHFLNTPDKSPGDRLTEICTKITDVDIDKVMINLKTEEFVLDMNTLQALQQLLQWVGDFVLYLLASLPNQGSLLRPGHSFLRDGTSLGMLRELMVVIRIWGLLKPSCLPVYTATSDTQDSMSLLFRLLTKLWICCRDEGPASEPDEALVDECCLLPSQLLIPSLDWLPASDGLVSRLQPKQPLRLQFGRAPTLPGSAATLQLDGLARAPGQPKIDHLRRLHLGACPTEECKACTRCGCVTMLKSPNRTTAVKQWEQRWIKNCLAVEGRGPDACVTSRASEEAPAFVQLGPQSTHHSPRTPRSLDHLHPEDRP [MED16]”, in the data set on HeLa Kyoto [1], the “solubility in G1/S (log2)” value was -0.121. Further, the melting temperature in the data set on HeLa Kyoto [2] (cell cycle stage: G1/S) was determined as 52.2 °C; in the data set with HeLa Kyoto [2] (cell cycle stage: mitosis), 52 °C. In addition, the “solubility change mitosis (log2)” value in the data set on HeLa Kyoto [3] is -0.185. For the same substance, the thermal stability score in the data set with HeLa Kyoto [4] (setting [5]) turned out to be 0.307; in the data set on HeLa Kyoto [4] (cell cycle stage: mitosis), 0.64.
Regarding “MATIPDWKLQLLARRRQEEASVRGREKAERERLSQMPAWKRGLLERRRAKLGLSPGEPSPVLGTVEAGPPDPDESAVLLEAIGPVHQNRFIRQERQQQQQQQQRSEELLAERKPGPLEARERRPSPGEMRDQSPKGRESREERLSPRETRERRLGIGGAQELSLRPLEARDWRQSPGEVGDRSSRLSEAWKWRLSPGETPERSLRLAESREQSPRRKEVESRLSPGESAYQKLGLTEAHKWRPDSRESQEQSLVQLEATEWRLRSGEERQDYSEECGRKEEWPVPGVAPKETAELSETLTREAQGNSSAGVEAAEQRPVEDGERGMKPTEGWKWTLNSGKAREWTPRDIEAQTQKPEPPESAEKLLESPGVEAGEGEAEKEEAGAQGRPLRALQNCCSVPSPLPPEDAGTGGLRQQEEEAVELQPPPPAPLSPPPPAPTAPQPPGDPLMSRLFYGVKAGPGVGAPRRSGHTFTVNPRRSVPPATPATPTSPATVDAAVPGAGKKRYPTAEEILVLGGYLRLSRSCLAKGSPERHHKQLKISFSETALETTYQYPSESSVLEELGPEPEVPSAPNPPAAQPDDEEDEEELLLLQPELQGGLRTKALIVDESCRR [PPP1R18]”, in the data set with HeLa Kyoto [1], the “solubility in G1/S (log2)” value was -0.53. Further, the melting temperature turned out to be 52.5 °C in the data set on HeLa Kyoto [2] (cell cycle stage: G1/S) and 52 °C in the data set with HeLa Kyoto [2] (cell cycle stage: mitosis). Also, the “solubility change mitosis (log2)” value with HeLa Kyoto [3] came to 0.428. Also, the thermal stability score was found to be 0.778 with HeLa Kyoto [4] (setting [5]) and 0.67 with HeLa Kyoto [4] (cell cycle stage: mitosis).
On to “MAAVVLAATRLLRGSGSWGCSRLRFGPPAYRRFSSGGAYPNIPLSSPLPGVPKPVFATVDGQEKFETKVTTLDNGLRVASQNKFGQFCTVGILINSGSRYEAKYLSGIAHFLEKLAFSSTARFDSKDEILLTLEKHGGICDCQTSRDTTMYAVSADSKGLDTVVALLADVVLQPRLTDEEVEMTRMAVQFELEDLNLRPDPEPLLTEMIHEAAYRENTVGLHRFCPTENVAKINREVLHSYLRNYYTPDRMVLAGVGVEHEHLVDCARKYLLGVQPAWGSAEAVDIDRSVAQYTGGIAKLERDMSNVSLGPTPIPELTHIMVGLESCSFLEEDFIPFAVLNMMMGGGGSFSAGGPGKGMFSRLYLNVLNRHHWMYNATSYHHSYEDTGLLCIHASADPRQVREMVEIITKEFILMGGTVDTVELERAKTQLTSMLMMNLESRPVIFEDVGRQVLATRSRKLPHELCTLIRNVKPEDVKRVASKMLRGKPAVAALGDLTDLPTYEHIQTALSSKDGRLPRTYRLFR [PMPCA]”, for which the “solubility in G1/S (log2)” value in the data set with HeLa Kyoto [1] is -0.0271. The melting temperature was 52.2 °C in the data set with HeLa Kyoto [2] (cell cycle stage: G1/S) and 51.8 °C with HeLa Kyoto [2] (cell cycle stage: mitosis). Further, the “solubility change mitosis (log2)” value in the data set with HeLa Kyoto [3] is -0.174. Further, the thermal stability score in the data set on HeLa Kyoto [4] (setting [5]) was 0.057; with HeLa Kyoto [4] (cell cycle stage: mitosis), -1.17.
For the substance “MQRVSGLLSWTLSRVLWLSGLSEPGAARQPRIMEEKALEVYDLIRTIRDPEKPNTLEELEVVSESCVEVQEINEEEYLVIIRFTPTVPHCSLATLIGLCLRVKLQRCLPFKHKLEIYISEGTHSTEEDINKQINDKERVAAAMENPNLREIVEQCVLEPD [FAM96A]”, in the data set with HeLa Kyoto [1], the “solubility in G1/S (log2)” value worked out at 0.0285. For the same substance, the figures for the melting temperature in the data set with HeLa Kyoto [2] (cell cycle stage: G1/S) and with HeLa Kyoto [2] (cell cycle stage: mitosis) were 54.9 °C and 55.3 °C, respectively. The “solubility change mitosis (log2)” value with HeLa Kyoto [3] was found to be 0.184. The thermal stability score in the data set with HeLa Kyoto [4] (setting [5]) is 0.017; in the data set with HeLa Kyoto [4] (cell cycle stage: mitosis), -0.983.
Consider “METSAPRAGSQVVATTARHSAAYRADPLRVSSRDKLTEMAASSQGNFEGNFESLDLAEFAKKQPWWRKLFGQESGPSAEKYSVATQLFIGGVTGWCTGFIFQKVGKLAATAVGGGFFLLQLANHTGYIKVDWQRVEKDMKKAKEQLKIRKSNQIPTEVRSKAEEVVSFVKKNVLVTGGFFGGFLLGMAS [FUNDC2]”, for which, in the data set with HeLa Kyoto [1], the “solubility in G1/S (log2)” value stood at 0.0627. In addition, the melting temperature with HeLa Kyoto [2] (cell cycle stage: G1/S) was found to be 58.2 °C; in the data set with HeLa Kyoto [2] (cell cycle stage: mitosis), 55.9 °C. Besides, the “solubility change mitosis (log2)” value with HeLa Kyoto [3] is -0.0574. The results for the thermal stability score in the data set with HeLa Kyoto [4] (setting [5]) and in the data set with HeLa Kyoto [4] (cell cycle stage: mitosis) were -0.847 and -1.68, respectively.
For MLLT4, in the data set on HeLa Kyoto [1], the “solubility in G1/S (log2)” value is -0.184. Besides, the melting temperature amounted to 50.9 °C in the data set with HeLa Kyoto [2] (cell cycle stage: G1/S) and 50.3 °C in the data set with HeLa Kyoto [2] (cell cycle stage: mitosis). The “solubility change mitosis (log2)” value with HeLa Kyoto [3] came to 0.00908. The thermal stability score with HeLa Kyoto [4] (setting [5]) was -0.182; with HeLa Kyoto [4] (cell cycle stage: mitosis), -0.125.
